Patent publication US20080219983A1 (TRIMESTER CUSHION, published 2008)

B1: Plasma-derived FVIII light chain (other, UniProt P00451 1668-2351, looked up)
chain: EITRTTLQSDQEEIDYDDTISVEMKKEDFDIYDEDENQSPRSFQKKTRHYFIAAVERLWDYGMSSSPHVLRNRAQSGSVPQFKKVVFQEFTDGSFTQPLYRGELNEHLGLLGPYIRAEVEDNIMVTFRNQASRPYSFYSSLISYEEDQRQGAEPRKNFVKPNETKTYFWKVQHHMAPTKDEFDCKAWAYFSDVDLEKDVHSGLIGPLLVCHTNTLNPAHGRQVTVQEFALFFTIFDETKSWYFTENMERNCRAPCNIQMEDPTFKENYRFHAINGYIMDTLPGLVMAQDQRIRWYLLSMGSNENIHSIHFSGHVFTVRKKEEYKMALYNLYPGVFETVEMLPSKAGIWRVECLIGEHLHAGMSTLFLVYSNKCQTPLGMASGHIRDFQITASGQYGQWAPKLARLHYSGSINAWSTKEPFSWIKVDLLAPMIIHGIKTQGARQKFSSLYISQFIIMYSLDGKKWQTYRGNSTGTLMVFFGNVDSSGIKHNIFNPPIIARYIRLHPTHYSIRSTLRMELMGCDLNSCSMPLGMESKAISDAQITASSYFTNMFATWSPSKARLHLQGRSNAWRPQVNNPKEWLQVDFQKTMKVTGVTTQGVKSLLTSMYVKEFLISSSQDGHQWTLFFQNGKVKVFQGNQDSFTPVVNSLDPPLLTRYLRIHPQSWVHQIALRMEVLGCEAQDLY
notes: domain: light chain (a3-A3-C1-C2); Prepared from plasma as in the cited literature; Human by context (the peptides are said to cover human FVIII regions); Residue numbers count on mature FVIII, without the signal peptide; also called LCh; 80-kDa light chain (a3-A3-C1-C2)
B2: Recombinant LRP cluster II (receptor, UniProt Q07954 805-1184, looked up)
chain: NKCRVNNGGCSSLCLATPGSRQCACAEDQVLDADGVTCLANPSYVPPPQCQPGEFACANSRCIQERWKCDGDNDCLDNSDEAPALCHQHTCPSDRFKCENNRCIPNRWLCDGDNDCGNSEDESNATCSARTCPPNQFSCASGRCIPISWTCDLDDDCGDRSDESASCAYPTCFPLTQFTCNNGRCININWRCDNDNDCGDNSDEAGCSHSCSSTQFKCNSGRCIPEHWTCDGDNDCGDYSDETHANCTNQATRPPGGCHTDEFQCRLDGLCIPLRWRCDGDTDCMDSSDEKSCEGVTHVCDPSVKFGCKDSARCISKAWVCDGDNDCEDNSDEENCESLACRPPSHPCANNTSVCLPPDKLCDGNDDCGDGSDEGELCDQ
notes: domain: cluster II

Columns and labels:
[1] = molecular target: Purified placenta-derived low-density lipoprotein receptor-related protein (LRP) (UniProt Q07954); test: SPR, immobilised LRP, steady-state affinity analysis
Sequence of Purified placenta-derived low-density lipoprotein receptor-related protein (LRP) (Q07954 20-4544, form in doubt): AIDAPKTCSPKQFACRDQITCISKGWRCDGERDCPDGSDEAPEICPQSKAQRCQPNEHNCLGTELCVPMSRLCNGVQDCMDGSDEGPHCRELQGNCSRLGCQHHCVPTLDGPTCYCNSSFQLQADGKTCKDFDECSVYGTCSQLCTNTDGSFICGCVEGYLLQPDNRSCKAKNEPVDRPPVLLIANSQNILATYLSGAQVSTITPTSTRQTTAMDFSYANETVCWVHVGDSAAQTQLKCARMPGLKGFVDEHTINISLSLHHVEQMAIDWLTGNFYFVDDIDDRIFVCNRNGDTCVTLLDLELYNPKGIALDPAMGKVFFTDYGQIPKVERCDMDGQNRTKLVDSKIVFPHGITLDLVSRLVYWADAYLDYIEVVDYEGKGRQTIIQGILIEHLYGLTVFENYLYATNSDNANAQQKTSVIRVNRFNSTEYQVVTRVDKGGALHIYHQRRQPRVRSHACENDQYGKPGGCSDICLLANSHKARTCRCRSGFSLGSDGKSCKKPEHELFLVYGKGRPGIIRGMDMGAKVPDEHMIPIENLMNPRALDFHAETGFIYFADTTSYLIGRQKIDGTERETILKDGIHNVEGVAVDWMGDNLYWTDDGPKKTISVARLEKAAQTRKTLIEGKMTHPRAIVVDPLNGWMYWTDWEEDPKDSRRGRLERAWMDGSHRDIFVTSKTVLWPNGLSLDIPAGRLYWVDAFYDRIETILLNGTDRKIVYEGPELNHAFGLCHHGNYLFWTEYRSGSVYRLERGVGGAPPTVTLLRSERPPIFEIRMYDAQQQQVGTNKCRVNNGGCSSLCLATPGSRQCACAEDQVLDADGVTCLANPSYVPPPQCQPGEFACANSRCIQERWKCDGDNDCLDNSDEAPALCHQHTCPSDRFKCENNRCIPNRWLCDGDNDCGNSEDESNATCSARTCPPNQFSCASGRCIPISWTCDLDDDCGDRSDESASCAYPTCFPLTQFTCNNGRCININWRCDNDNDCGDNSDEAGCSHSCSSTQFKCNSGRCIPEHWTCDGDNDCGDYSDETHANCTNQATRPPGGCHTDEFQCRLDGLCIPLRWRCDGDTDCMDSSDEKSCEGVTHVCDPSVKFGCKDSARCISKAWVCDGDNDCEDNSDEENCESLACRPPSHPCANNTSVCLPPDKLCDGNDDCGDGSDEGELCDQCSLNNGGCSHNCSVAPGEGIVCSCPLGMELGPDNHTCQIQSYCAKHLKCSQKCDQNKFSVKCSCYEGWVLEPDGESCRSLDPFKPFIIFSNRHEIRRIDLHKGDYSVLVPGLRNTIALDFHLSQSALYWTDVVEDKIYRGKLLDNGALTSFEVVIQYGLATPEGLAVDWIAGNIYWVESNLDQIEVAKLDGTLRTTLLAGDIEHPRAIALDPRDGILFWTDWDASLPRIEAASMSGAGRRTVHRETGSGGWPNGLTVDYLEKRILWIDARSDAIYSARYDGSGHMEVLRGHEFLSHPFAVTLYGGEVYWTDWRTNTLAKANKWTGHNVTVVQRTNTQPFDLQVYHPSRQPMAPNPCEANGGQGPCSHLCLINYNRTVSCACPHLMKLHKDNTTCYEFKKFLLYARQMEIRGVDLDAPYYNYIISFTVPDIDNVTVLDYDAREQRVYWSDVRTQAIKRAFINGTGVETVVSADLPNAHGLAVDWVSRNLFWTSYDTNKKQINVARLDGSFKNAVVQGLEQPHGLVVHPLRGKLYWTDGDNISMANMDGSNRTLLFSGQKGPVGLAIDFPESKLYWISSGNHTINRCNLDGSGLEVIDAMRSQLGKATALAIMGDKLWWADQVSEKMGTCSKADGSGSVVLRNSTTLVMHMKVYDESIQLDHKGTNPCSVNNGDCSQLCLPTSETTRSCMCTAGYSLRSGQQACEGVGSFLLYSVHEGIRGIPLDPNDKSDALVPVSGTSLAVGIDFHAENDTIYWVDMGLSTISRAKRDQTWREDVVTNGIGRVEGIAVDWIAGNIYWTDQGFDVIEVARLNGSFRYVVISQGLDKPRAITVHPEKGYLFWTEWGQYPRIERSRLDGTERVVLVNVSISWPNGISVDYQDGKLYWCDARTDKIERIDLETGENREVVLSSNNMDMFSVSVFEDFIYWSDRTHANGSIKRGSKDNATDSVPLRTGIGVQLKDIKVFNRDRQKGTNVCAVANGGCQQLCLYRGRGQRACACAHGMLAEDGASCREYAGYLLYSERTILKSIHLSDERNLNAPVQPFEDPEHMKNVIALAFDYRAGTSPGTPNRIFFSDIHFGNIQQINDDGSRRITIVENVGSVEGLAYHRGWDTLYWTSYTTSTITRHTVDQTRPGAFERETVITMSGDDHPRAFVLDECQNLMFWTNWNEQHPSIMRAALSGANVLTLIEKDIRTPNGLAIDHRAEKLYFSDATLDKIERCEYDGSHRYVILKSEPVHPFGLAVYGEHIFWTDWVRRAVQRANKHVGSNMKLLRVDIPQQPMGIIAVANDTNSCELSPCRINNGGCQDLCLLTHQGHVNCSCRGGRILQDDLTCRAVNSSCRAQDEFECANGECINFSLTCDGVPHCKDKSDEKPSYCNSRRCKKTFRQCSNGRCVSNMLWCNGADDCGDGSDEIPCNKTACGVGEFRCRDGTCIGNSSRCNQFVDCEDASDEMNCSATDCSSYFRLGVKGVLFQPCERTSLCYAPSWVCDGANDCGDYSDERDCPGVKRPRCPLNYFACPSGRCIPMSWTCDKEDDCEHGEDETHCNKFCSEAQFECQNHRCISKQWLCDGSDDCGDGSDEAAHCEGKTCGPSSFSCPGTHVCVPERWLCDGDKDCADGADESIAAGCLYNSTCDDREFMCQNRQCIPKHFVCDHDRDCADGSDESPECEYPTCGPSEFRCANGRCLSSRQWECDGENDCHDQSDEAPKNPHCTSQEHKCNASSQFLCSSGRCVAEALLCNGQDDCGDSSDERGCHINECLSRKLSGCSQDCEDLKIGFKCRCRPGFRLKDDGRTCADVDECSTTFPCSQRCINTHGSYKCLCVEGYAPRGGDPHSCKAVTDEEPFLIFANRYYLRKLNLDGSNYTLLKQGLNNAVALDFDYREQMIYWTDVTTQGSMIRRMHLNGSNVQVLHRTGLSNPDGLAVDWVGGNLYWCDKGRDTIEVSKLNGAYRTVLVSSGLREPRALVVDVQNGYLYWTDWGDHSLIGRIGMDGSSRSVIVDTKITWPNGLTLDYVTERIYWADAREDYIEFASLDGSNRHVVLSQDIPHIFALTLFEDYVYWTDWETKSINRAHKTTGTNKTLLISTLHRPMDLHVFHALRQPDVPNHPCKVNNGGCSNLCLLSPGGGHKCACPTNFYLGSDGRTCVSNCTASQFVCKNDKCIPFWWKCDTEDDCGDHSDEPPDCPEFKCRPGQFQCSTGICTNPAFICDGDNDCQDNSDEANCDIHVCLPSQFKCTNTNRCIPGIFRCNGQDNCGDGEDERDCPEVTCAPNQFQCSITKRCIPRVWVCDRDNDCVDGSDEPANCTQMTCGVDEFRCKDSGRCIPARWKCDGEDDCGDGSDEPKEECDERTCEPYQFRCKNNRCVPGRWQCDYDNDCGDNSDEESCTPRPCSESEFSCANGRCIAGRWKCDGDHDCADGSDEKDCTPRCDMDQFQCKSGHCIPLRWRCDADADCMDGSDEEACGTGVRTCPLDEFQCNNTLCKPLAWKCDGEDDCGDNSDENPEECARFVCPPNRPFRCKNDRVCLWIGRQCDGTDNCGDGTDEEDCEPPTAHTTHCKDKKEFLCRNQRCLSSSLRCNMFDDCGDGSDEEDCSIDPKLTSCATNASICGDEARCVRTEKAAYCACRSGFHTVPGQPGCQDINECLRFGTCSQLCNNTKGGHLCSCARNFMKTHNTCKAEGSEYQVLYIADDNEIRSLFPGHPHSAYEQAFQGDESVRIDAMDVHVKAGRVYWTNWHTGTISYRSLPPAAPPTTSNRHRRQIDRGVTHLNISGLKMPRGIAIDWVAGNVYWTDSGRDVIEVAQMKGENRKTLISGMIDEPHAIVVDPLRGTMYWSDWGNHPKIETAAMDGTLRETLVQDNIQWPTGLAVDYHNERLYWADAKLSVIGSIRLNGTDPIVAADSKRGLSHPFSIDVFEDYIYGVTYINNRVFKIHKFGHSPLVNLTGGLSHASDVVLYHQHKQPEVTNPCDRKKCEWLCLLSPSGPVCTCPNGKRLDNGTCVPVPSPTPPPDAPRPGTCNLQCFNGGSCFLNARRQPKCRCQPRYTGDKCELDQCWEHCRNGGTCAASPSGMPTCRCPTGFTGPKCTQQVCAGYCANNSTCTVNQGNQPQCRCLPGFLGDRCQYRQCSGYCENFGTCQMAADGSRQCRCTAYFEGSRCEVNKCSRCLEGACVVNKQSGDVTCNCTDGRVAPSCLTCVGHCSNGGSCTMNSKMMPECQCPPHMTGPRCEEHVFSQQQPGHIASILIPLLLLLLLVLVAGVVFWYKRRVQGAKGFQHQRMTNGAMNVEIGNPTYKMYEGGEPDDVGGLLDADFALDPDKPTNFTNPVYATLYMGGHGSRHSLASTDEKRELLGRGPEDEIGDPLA

[2] = molecular target: Purified placenta-derived low-density lipoprotein receptor-related protein (LRP) (UniProt Q07954); test: SPR, immobilised LRP, two-site model, site class 1
[3] = molecular target: Purified placenta-derived low-density lipoprotein receptor-related protein (LRP) (UniProt Q07954); test: SPR, immobilised LRP, two-site model, site class 2
[4] = molecular target: B2; test: solid-phase competition: peptide against FVIII light chain (25 nM) binding to immobilised LRP cluster II
Procedure: (§1) Solid-phase Binding Assays—Recombinant LRP clusters II or IV (1 pmol/well) were adsorbed onto microtiter wells in 50 mM NaHCO₃ (pH 9.8) in a volume of 50 μl for 16 h at 4° C. Wells were blocked with 2% (w/v) HSA, 150 mM NaCl, 5 mM CaCl₂, and 50 mM Tris (pH 7.4) in a volume of 200 μl for 1 h at 37° C. […] Bound ligand was detected by incubating with peroxidase-conjugated monoclonal antibody CLB-CAg 12 in the same buffer for 15 min at 37° C. […] Residual FVIII binding was detected as described above.
Half-maximum inhibition constants (IC₅₀) represent the mean values ±S.D. of three experiments.)

[5] = molecular target: B2; test: solid-phase binding assay: serial dilutions of FVIII light chain on immobilised LRP cluster II (1 pmol/well); detection with peroxidase-conjugated CLB-CAg 12
Procedure: FIG. 2. […] Data represent the mean ±S.D. of three experiments
as §1

Factor Va light chain = molecular target: T1, Factor Va light chain (human, UniProt P12259 1574-2224); test: SPR (BIAcore), FVa light chain immobilised at 76 fmol/mm2, LRP cluster II 100 nM as analyte
T1 construct: domain: FVa light chain; also called FVa light chain
T1 sequence (looked up): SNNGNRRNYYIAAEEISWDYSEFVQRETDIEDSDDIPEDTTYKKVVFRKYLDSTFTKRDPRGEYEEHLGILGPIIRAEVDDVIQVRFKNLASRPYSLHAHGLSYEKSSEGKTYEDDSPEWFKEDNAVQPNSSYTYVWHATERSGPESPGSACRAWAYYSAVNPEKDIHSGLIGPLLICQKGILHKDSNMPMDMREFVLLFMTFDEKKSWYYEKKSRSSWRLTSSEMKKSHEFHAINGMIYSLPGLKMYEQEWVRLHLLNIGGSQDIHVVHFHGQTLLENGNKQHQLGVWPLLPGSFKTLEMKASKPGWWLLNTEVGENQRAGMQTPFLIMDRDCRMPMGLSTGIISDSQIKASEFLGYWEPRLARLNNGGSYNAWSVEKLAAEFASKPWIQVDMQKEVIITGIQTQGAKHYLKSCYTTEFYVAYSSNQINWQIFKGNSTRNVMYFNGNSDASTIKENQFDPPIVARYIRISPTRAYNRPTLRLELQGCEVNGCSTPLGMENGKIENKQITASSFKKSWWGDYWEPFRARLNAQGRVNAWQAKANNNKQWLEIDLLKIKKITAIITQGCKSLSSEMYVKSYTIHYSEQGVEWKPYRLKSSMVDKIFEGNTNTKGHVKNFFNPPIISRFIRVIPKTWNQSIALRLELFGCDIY
Procedure: Response is indicated as Resonance Units (RU) and is corrected for nonspecific binding, which was less than 5% relative to coated channels.
(§2) Surface Plasmon Resonance—The kinetics of protein interactions was determined by surface plasmon resonance (SPR) analysis, employing a BIAcore™2000 biosensor system (Biacore AS, Uppsala, Sweden). […] One control flow-channel was routinely activated and blocked in the absence of protein. […] Dissociation was allowed for 2 min in the same buffer flow. Sensor-chips were regenerated using several pulses of either 100 mM H₃PO₄ or 20 mM EDTA, 1 M NaCl, and 50 mM Hepes (pH 7.4) at a flow rate of 20 μl/min. The association (kₒₙ) and dissociation (koff) rate constants were determined by using the BIAevaluation software 3.1 (Biacore AB, Uppsala, Sweden). Data were corrected for bulk refractive index changes and fitted by nonlinear regression analysis according to a two-site binding model. Equilibrium dissociation constants (kd) were calculated from the ratio koff/kₒₙ. The kd value for low-affinity interactions was estimated using steady-state affinity analysis by using BIAevaluation software.

[6] = molecular target: T2, Recombinant FVIII/FV^1811-1818 light chain chimera (UniProt P00451 1668-2351); test: SPR (BIAcore), FVIII/FV1811-1818 light chain chimera captured at 20 fmol/mm2 on immobilised scFv EL14, scFv KM41 40 nM as analyte
T2 construct: domain: light chain (a3-A3-C1-C2); The single substitutions were worked out from the two printed octapeptides; In the assays it was captured on immobilised scFv EL14
T2 sequence: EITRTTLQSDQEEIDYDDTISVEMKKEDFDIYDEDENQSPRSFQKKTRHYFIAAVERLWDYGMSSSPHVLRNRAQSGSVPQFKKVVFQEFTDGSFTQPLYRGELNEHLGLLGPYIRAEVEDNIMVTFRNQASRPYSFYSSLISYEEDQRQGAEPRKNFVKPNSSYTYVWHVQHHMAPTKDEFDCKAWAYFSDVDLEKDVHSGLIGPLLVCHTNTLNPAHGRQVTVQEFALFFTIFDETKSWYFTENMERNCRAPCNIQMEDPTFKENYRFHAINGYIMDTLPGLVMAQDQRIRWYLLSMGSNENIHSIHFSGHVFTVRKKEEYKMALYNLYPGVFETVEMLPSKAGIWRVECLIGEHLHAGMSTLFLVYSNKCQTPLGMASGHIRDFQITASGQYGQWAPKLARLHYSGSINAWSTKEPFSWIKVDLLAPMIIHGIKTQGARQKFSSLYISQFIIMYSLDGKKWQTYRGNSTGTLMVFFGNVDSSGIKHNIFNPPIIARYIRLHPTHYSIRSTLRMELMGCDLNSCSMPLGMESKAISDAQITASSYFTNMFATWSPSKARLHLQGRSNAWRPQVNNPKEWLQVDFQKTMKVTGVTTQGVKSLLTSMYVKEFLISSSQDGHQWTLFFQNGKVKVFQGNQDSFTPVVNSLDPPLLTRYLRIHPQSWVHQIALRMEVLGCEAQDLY
Procedure: Response is indicated as Resonance Units (RU) and is corrected for nonspecific binding.
as §2

[7] = molecular target: B1; test: solid-phase competition assay: FVIII light chain (25 nM) on immobilised LRP cluster II (1 pmol/well) in the presence of scFv KM41 (0-100 nM); detection with peroxidase-conjugated CLB-CAg 12
Procedure: FIG. 4. […] Data represent the mean ±S.D. of three experiments. […] Complexes were allowed to form for 30 min before SPR analysis.
as §1

## Recombinant FVIII C2 domain (from UniProt P00451 2192-2351)
[1]
  Kd: 3400 nM

## Factor Xa-cleaved FVIII light chain (from UniProt P00451 1741-2351)
[2]
  Kd: 22 nM
  koff: 0.003 s⁻¹
  kon: 130000 M⁻¹ s⁻¹
[3]
  Kd: 60 nM
  koff: 0.056 s⁻¹
  kon: 900000 M⁻¹ s⁻¹

## Recombinant FVIII a3-A3-C1 fragment (from UniProt P00451 1668-2191)
[2]
  Kd: 26 nM
  koff: 0.0041 s⁻¹
  kon: 160000 M⁻¹ s⁻¹
[3]
  Kd: 74 nM
  koff: 0.08 s⁻¹
  kon: 1.1e+06 M⁻¹ s⁻¹

## DGKKWQTYRG (also called 2108-2117) [Synthetic peptide FVIII Asp^2108-Gly^2117]
[4]
  IC50: 900000 nM

## YFWKVQHHMAPTKDEFDCKA [Synthetic peptide FVIII Tyr^1815-Ala^1834]
[4]
  IC50: 16800 nM

## KNFVKPNETKTYFWK [Synthetic peptide FVIII Lys^1804-Lys^1818]
[4]
  IC50: 1900 nM

## B1
[2]
  Kd: 18 nM
[3]
  Kd: 59 nM
[5]
  EC50 (read off the curve): ~20 nM

## B2
Factor Va light chain
  binding result: no binding (tested: 100 nM)

B3: scFv KM41 (scFv)
scFv: QVQLLQSAADVKKPGASVKVSCTASGYIFTSYDIDWVRQATGQGLEWMGWMNPNSGNAGFAQKFKGRLTLTRDTSTSTAYMELRRLESEDTAVYYCARSTPHSYSGSGLPPTSDSWGQGTLVTVSSGGGGSGGGGSGGGGSEIVLTQSPGTLSLSPGERATLSCRASQSVSSSFLGWYQQKPGQAPRLLIYGASSRATGIPDRFSGSGSGTDFTLTISRLEPEDFAVYYCQQYGISPLTFGGGTKLEIKRAAAEQKLISEEDLNGAAHHHHHH
notes: Expressed in E. coli TG1
[6]
  binding result: no binding (tested: 40 nM)
[7]
  IC50 (read off the curve): ~7 nM
